Measured values reported in US20170355770A1 (ASKGENE PHARMA, published 2017).

T1: human PDL2 (human, UniProt Q9BQ51 20-219, limits assumed)
T1 construct: Bought protein
T1 sequence (looked up): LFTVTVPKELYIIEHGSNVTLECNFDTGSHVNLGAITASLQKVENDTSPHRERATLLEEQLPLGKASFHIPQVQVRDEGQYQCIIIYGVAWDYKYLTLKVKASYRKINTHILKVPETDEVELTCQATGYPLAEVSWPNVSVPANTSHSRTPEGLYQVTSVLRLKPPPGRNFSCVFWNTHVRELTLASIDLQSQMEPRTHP


Columns and labels:
[1] = target: PD-L1 ligand (analyte of the Octet affinity measurement) (UniProt Q9NZQ7 19-238, limits assumed); assay: BLI (Octet RED 96), antibody captured on anti-human IgG sensor, PD-L1 in solution, 1:1 fit
Procedure: Affinity Measurement: The affinity measurement was conducted with Octet RED 96 (ForteBio) instrument at 30 degree Celsius. Briefly, anti-human IgG capture sensor (AHC from ForteBio cat #18-5060) was equilibrated with assay buffer (1× dilution of 10× Kinetics Buffer (ForteBio, Cat #18-5032). Test antibody samples were diluted to 3 ug/mL and allowed to bind to the sensors for 5 min. The sensors were then washed in assay buffer for 3 minutes, and PD-L1 ligand diluted at different concentrations were allowed to bind to the mAb coated on the sensors for 5 minutes. Afterwards, dissociation was followed for 10 minutes in the assay buffer. The sensors could be regenerated by washing in glycine buffer and assay buffer 3 times. The data were fitted with 1:1 binding model using the ForteBio software.

human PDL2 [2] = target: T1, human PDL2; assay: ELISA on coated human PDL2 (printed: hu PDL2-Fc), purified chimeric antibody [panel hu PDL2-Fc ELISA]
Procedure: PD-L1 binding ELISAs: B cell cloning supernatants were tested for binding to PD-L1 by ELISA. ELISA plates were coated with 100 uL antigen at 0.5 or 1 ug/mL in PBS (Life Technologies, cat. #14190-250) overnight at 4° C. or for 1 hour at 37° C. […] Plates were then blocked with PBS+10% goat serum for 1 hour. After washing with deionized water, samples were added in PBS/10% goat serum and incubated for 1 hour. […] Plates were then washed with deionized water and 100 uL TMB substrate (Thermo Scientific, cat. #PI134021) was added to each well. Development was stopped with 100 uL 1N H₂SO₄, and OD450 was measured using a microplate spectrophotometer.
Purified chimeric and humanized antibodies were tested for binding to PD-L1 by ELISA. Antigens tested include; human PD-L1-Fc, human PD-L1-his, murine PD-L1-his, and cynomolgus PD-L1-his (Sinobiological, cat. #90251-CO8H) and human PDL2 (Acrobiosystems, cat. #PD2-H5251). Protocols were the same as for testing B cell cloning supernatants except that the secondary antibodies were as follows; for human PD-L1-Fc the secondary was goat anti-human kappa-HRP (Novex, Life Technologies, cat. #A18853), for human PD-L1-his, murine PD-L1-his and cynomolgus PD-L1-his the secondary was goat anti-human IgG Fc-HRP (Jackson ImmunoResearch, cat. #109-005-098).

human PD-L1-Fc = target: T2, human PD-L1-Fc (human, UniProt Q9NZQ7 19-238, limits assumed); assay: competition ELISA: coated human PD-L1-Fc, antibody added first, then PD1-his, detected with anti-His-HRP
T2 construct: Bought fusion protein; not shown: Fc part

human PDL2 [3] = target: T1, human PDL2; assay: ELISA, coated human PDL2
[4] = target: human PD-L1 expressed on cells (human, UniProt Q9NZQ7 19-290); assay: cell-based or functional assay
Sequence of human PD-L1 expressed on cells (Q9NZQ7 19-290): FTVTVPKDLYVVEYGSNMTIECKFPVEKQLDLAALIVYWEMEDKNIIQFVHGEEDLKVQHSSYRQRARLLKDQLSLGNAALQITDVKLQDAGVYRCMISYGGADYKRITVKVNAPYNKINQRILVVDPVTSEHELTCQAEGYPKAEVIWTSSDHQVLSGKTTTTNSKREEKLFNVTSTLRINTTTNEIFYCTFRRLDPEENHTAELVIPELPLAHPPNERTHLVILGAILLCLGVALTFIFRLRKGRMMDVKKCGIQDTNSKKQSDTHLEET

Sequence of PD-L1 ligand (analyte of the Octet affinity measurement) (Q9NZQ7 19-238 limits assumed): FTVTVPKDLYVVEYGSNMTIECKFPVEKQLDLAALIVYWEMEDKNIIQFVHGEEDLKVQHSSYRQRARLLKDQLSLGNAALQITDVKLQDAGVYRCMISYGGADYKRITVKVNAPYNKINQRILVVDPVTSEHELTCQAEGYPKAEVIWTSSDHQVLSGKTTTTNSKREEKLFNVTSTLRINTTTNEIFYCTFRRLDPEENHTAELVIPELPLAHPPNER
T2 sequence (Q9NZQ7 19-238 limits assumed): as above

Kd [1] [nM]	koff [1] [s⁻¹]	kon [1] [M⁻¹ s⁻¹]	binding result (human PDL2 [2])	IC50 (read off the curve) (human PD-L1-Fc) [µg/mL]	binding result (human PDL2 [3])	EC50 of the rise of luciferase activity, PD1/PD-L1 blockade reporter assay (CHO-K1/TCRA/PD-L1 cells with PD1/NFAT Jurkat cells); column Chimeric of the table under the plot [4] [µg/mL]	Binder
0.051	2.08e-05	455000	no binding (tested: 4 µg/mL)	–	–	–	chimeric anti-PD-L1 antibody 115C1 (antibody, V domains shown) VH: CQSVKESEGGLFKPTDTLTLTCTVSGFSLSSVAVSWVRQAPGKGLEWIGTISYTGNTYYASWAKSRSTITRNTNENTVTLKMPSLTVADTATYFCAKEILYYGMDFWGPGTLVTVSS VL: DIVMTQTPSSVSAAVGGTVTINCQASQSISSYLAWYQQKPGQPPKLLIYGASNLESGVPSRFKGSGSGTDFTLTISDLECADAATYYCQSTYGSTSTSDYGNAFGGGTKVVVVR
< 0.001	< 1e-07	682000	no binding (tested: 4 µg/mL)	~0.2	–	–	chimeric anti-PD-L1 antibody 116F3 (antibody, V domains shown) VH: CQSVKESEGGLFKPTDTLTLTCTVSGIDLSSISIGWVRQAPGNGLEWIGTISDSGSAYYASWAKSRSTITRNTNENTVTLKMTSLTAADTASYFCAKEILYYGMDLWGPGTLVTVSS VL: DVVMTQTPASVSGAVGGTVTIKCQASEDIESYLAWYQQKPGQPPKLLIYAASNLEPGVPSRFKGSRSGTEYTLTITDLECDDAATYHCQATYGSTSSSDYGNAFGGGTKVVVVR
0.173	6.87e-05	404000	–	–	no binding	–	chimeric anti-PD-L1 antibody 110B4 (antibody, V domains shown) VH: CQSVKESEGGLFKPTDTLTLTCKVSGIDLSSISISWVRQAPGNGLEWIGVINSYGNTYYASWAKSRSTITRNTNENTVTLKMTSLTAADTATYFCAKEILYYGMDLWGPGTLVTVSS VL: DVVMTQTPASVEAAVGGTVTIKCQASQSISSYFSWYQQKPGQRPKLLIYDASNLESGVPSRFKGSRSGTEYTLTISDLEWDDAATYYCQCTYGSTSSSNYGNNFGGGTKVVVVR
0.115	3.78e-05	362000	no binding (tested: 4 µg/mL)	–	–	–	chimeric anti-PD-L1 antibody 113F1 (antibody, V domains shown) VH: CQSVKESEGGLFKPTDTLTLTCTVSGIDLSSIAISWVRQAPGNGLEWIGTINSYGSTYYASWAQSRSTITRNTNENTVTLKMTSLTAADTASYFCAKEILYYGMDVWGPGTLVTVSS VL: DVVMTQTPASVEAAVGGTVTIKCQASQSISSYLAWYQQKPGQPPKLLIYAASNLESGVPSRFKGSGSGTEYTLTISDLECDDAATYYCQSTYGTTSTSDYGNAFGGGTKVVVVR
< 0.001	< 1e-07	755000	–	–	no binding	–	chimeric anti-PD-L1 antibody 110H8 (antibody, V domains shown) VH: CQSVKESEGGLFKPTDTLTLTCTVSGIDLSSVSISWVRQAPGNGLEWIGTIGASGSAYYASWAKRRSTITRNTNLNTVTLKMTSLTAADTASYFCAKEILYYGMDLWGPGTLVTVSS VL: DVVMTQTPASVEAAVGGTVTIKCQASQSISNYLAWYQQKPGQRPKLLIYAASNLEPGVPSRFKGSGSGTEYTLTITDLECDDAATYHCQCTYGSTSSSDYGNAFGGGTKVVVVR
0.1	4.99e-05	532000	no binding (tested: 4 µg/mL)	–	–	–	chimeric anti-PD-L1 antibody 115E2 (antibody, V domains shown) VH: CQSVKESEGGLFKPMDTLTLTCTVSGIDLGSVAISWVRQAPGKGLEWIGTIGSSGSAYYASWAKSRSTITRNTNLNTVTLKMTSLTAADTASYFCAKEILYYGMDRWGPGTLVTVSS VL: DVVMTQTPASVEASVGGTVTINCQASQSISSYLAWYQQKPGQPPKLLIYAASNLEPGVPSRFKGSGSGTEFTLTISDLECADAATYYCQATYGSTSSSDYGNAFGGGTKVVVVR
0.183	0.000197	1.07e+06	–	–	no binding	0.0483	chimeric anti-PD-L1 antibody 111H2 (antibody, V domains shown, also called chimeric anti-PD-L1 111H2 antibody) VH: QEQLVESGGGLVQPGGTLKLSCKGSGFDLSSNAMCWVRQAPGKGLEWIGCIVYGNCYYASWVNGRFTISSDNAQSSVDLQLNSLTAADTATYFCARDPAGSSVYTGGFNIWGPGTLVTVSS VL: AIDMTQTPSPVSAAVGDTVTINCQASENIYSFLAWYQQKPGHSPKPLIYFASKLASGVPSRFKGSGSGTQFTLTISDVQCDDAATYYCQQTVSYKNADTAFGGGTKVVVVR
